Experimental data from the Immune Epitope Database (IEDB).

Assays:
[1] = molecular target: HLA-B*18:01; assay: IEDB peptide-MHC binding, purified MHC/competitive/radioactivity; filed as Kd, often an IC50 or EC50 that approximates it; ≥ and ≤ were set here for values at or beyond the usual limits of such assays
[2] = molecular target: HLA-B*40:01; assay: as above
[3] = molecular target: HLA-B*40:02; assay: as above
[4] = molecular target: HLA-B*44:02; assay: as above
[5] = molecular target: HLA-B*44:03; assay: as above
[6] = molecular target: HLA-B*45:01; assay: as above
[7] = molecular target: HLA-A*01:01; assay: IEDB peptide-MHC binding, purified MHC/direct/fluorescence; filed as Kd, often an IC50 or EC50 that approximates it; ≥ and ≤ were set here for values at or beyond the usual limits of such assays; conditions: source organism: Rickettsia sibirica
[8] = molecular target: HLA-A*02:01; assay: as above; conditions: source organism: Rickettsia sibirica
[9] = molecular target: HLA-A*03:01; assay: as above; conditions: source organism: Rickettsia sibirica
[10] = molecular target: HLA-A*11:01; assay: as above; conditions: source organism: Rickettsia sibirica
[11] = molecular target: HLA-A*24:03; assay: as above; conditions: source organism: Rickettsia sibirica
[12] = molecular target: HLA-A*26:01; assay: as above; conditions: source organism: Rickettsia sibirica
[13] = molecular target: HLA-A*31:01; assay: as above; conditions: source organism: Rickettsia sibirica
[14] = molecular target: HLA-A*69:01; assay: as above; conditions: source organism: Rickettsia sibirica
[15] = molecular target: HLA-B*07:02; assay: as above; conditions: source organism: Rickettsia sibirica
[16] = molecular target: HLA-B*08:01; assay: as above; conditions: source organism: Rickettsia sibirica
[17] = molecular target: HLA-B*15:01; assay: as above; conditions: source organism: Rickettsia sibirica
[18] = molecular target: HLA-B*27:05; assay: as above; conditions: source organism: Rickettsia sibirica
[19] = molecular target: HLA-B*40:01; assay: as above; conditions: source organism: Rickettsia sibirica
[20] = molecular target: HLA-B*44:02; assay: as above; conditions: source organism: Rickettsia sibirica
[21] = molecular target: HLA-B*58:01; assay: as above; conditions: source organism: Rickettsia sibirica
[22] = molecular target: HLA-A*02:02; assay: IEDB peptide-MHC binding, purified MHC/competitive/radioactivity; filed as Kd, often an IC50 or EC50 that approximates it; ≥ and ≤ were set here for values at or beyond the usual limits of such assays
[23] = molecular target: HLA-A*02:03; assay: as above
[24] = molecular target: HLA-A*02:06; assay: as above
[25] = molecular target: HLA-A*68:02; assay: as above
[26] = molecular target: HLA-A*02:01; assay: as above
[27] = source organism: Mammarenavirus choriomeningitidis
[28] = source organism: SARS coronavirus Tor2
[29] = source organism: Lassa virus Josiah
[30] = source organism: Lymphocytic choriomeningitis virus (strain Armstrong)
[31] = source organism: Dengue virus 4 Philippines/H241/1956
[32] = source organism: Hepacivirus hominis

Which results are given for EDQFLPFMS?
Kd [1, 27]: ≥ 77.5 µM; Kd [2, 27]: 5.67 µM; Kd [3, 27]: 7.96 µM; Kd [4, 27]: 17.4 µM; Kd [5, 27]: ≥ 39.6 µM; Kd [6, 27]: ≥ 23.9 µM

For ASDRISGIL, which Kd [7] is on record?
Its Kd is 6.55 µM.

What about the Kd [8] of the same sequence?
The Kd was no less than 20 µM.

What about the Kd [9] of the same sequence?
Its Kd is no less than 20 µM.

And the Kd [10]?
The Kd was no less than 20 µM.

What about the Kd [11] of the same sequence?
Its Kd is no less than 20 µM.

And the Kd [12]?
The Kd was no less than 20 µM.

And the Kd [13]?
The Kd was no less than 20 µM.

And the Kd [14]?
Its Kd is no less than 20 µM.

What about the Kd [15] of the same sequence?
The Kd was 14.6 µM.

What about the Kd [16] of the same sequence?
Its Kd is no less than 20 µM.

What about the Kd [17] of the same sequence?
The Kd was 5.16 µM.

And the Kd [18]?
The Kd was no less than 20 µM.

What about the Kd [19] of the same sequence?
The Kd was 1.46 µM.

What about the Kd [20] of the same sequence?
Its Kd is no less than 20 µM.

What about the Kd [21] of the same sequence?
Its Kd is no less than 20 µM.

With AEQLMSLAA as the sequence, how does the Kd [1, 27] read?
Its Kd is 3.64 µM.

What about the Kd [2, 27] of the same sequence?
The Kd was 1.85 µM.

What about the Kd [3, 27] of the same sequence?
The Kd was 0.00331 µM.

And the Kd [4, 27]?
Its Kd is 0.214 µM.

And the Kd [5, 27]?
Its Kd is 4.48 µM.

What about the Kd [6, 27] of the same sequence?
The Kd was 0.0017 µM.

Which Kd [1, 28] does the source give for YEGNSPFHPL here?
Its Kd is 12.3 µM.

What about the Kd [2, 28] of the same sequence?
The Kd was 0.0462 µM.

What about the Kd [3, 28] of the same sequence?
The Kd was 0.0122 µM.

And the Kd [4, 28]?
Its Kd is 8.1 µM.

What about the Kd [5, 28] of the same sequence?
The Kd was 16.8 µM.

And the Kd [6, 28]?
Its Kd is no less than 42.7 µM.

Which Kd [22, 29] does the source give for RLLGTFTWTL here?
Its Kd is 0.117 µM.

What about the Kd [23, 29] of the same sequence?
Its Kd is 0.106 µM.

What about the Kd [24, 29] of the same sequence?
Its Kd is 0.00755 µM.

What about the Kd [25, 29] of the same sequence?
Its Kd is no less than 5 µM.

Which results are given for REFVATTRTL?
Kd [1, 30]: 14.1 µM; Kd [2, 30]: 8.64 µM; Kd [3, 30]: 0.0699 µM; Kd [4, 30]: 3.18 µM; Kd [5, 30]: 7.56 µM; Kd [6, 30]: ≥ 30.5 µM

Which results are given for TLENERGEL?
Kd ([26]; source organism: Homo sapiens): ≥ 28.6 µM; Kd ([24]; source organism: Homo sapiens): ≥ 45.6 µM; Kd ([25]; source organism: Homo sapiens): ≥ 21.5 µM

With MTGPLVAGGL as the sequence, how does the Kd ([25]; source organism: Dengue virus 2 Jamaica/1409/1983) read?
Its Kd is 0.0216 µM.

SSVLLWMASV was tested. Which Kd ([25]; source organism: Dengue virus 1 Singapore/S275/1990) did it give?
Its Kd is 0.0452 µM.

Which Kd [1, 28] does the source give for RERVNINIVG here?
The Kd was no less than 70.5 µM.

And the Kd [2, 28]?
The Kd was 4.91 µM.

And the Kd [3, 28]?
Its Kd is 0.143 µM.

And the Kd [4, 28]?
Its Kd is 7.9 µM.

What about the Kd [5, 28] of the same sequence?
The Kd was 6.74 µM.

And the Kd [6, 28]?
The Kd was 1.63 µM.

What does the source list for REVKTIKVF?
Kd [1, 28]: 4 µM; Kd [2, 28]: 0.219 µM; Kd [3, 28]: 0.0543 µM; Kd [4, 28]: 0.103 µM; Kd [5, 28]: 0.0878 µM; Kd [6, 28]: 6.75 µM

ITVSGLYPL was tested. Which Kd [25, 31] did it give?
The Kd was 0.0123 µM.

How did the Kd [26, 32] turn out when KLRGMGFNAV was run?
Its Kd is 0.454 µM.

And the Kd [22, 32]?
Its Kd is 0.161 µM.

What about the Kd [23, 32] of the same sequence?
The Kd was 0.00205 µM.

What about the Kd [24, 32] of the same sequence?
The Kd was 0.496 µM.

What about the Kd [25, 32] of the same sequence?
The Kd was no less than 40.6 µM.

Which Kd [1, 28] does the source give for SDYDYYRYNL here?
Its Kd is no less than 70.5 µM.

What about the Kd [2, 28] of the same sequence?
Its Kd is no less than 69.6 µM.

What about the Kd [3, 28] of the same sequence?
The Kd was no less than 51.6 µM.

What about the Kd [4, 28] of the same sequence?
The Kd was 12.4 µM.

And the Kd [5, 28]?
Its Kd is 9.73 µM.

What about the Kd [6, 28] of the same sequence?
The Kd was no less than 25 µM.

How did the Kd [1, 28] turn out when NEYRQYLDAY was run?
Its Kd is 0.253 µM.

What about the Kd [2, 28] of the same sequence?
Its Kd is no less than 21.9 µM.

What about the Kd [3, 28] of the same sequence?
Its Kd is 0.632 µM.

And the Kd [4, 28]?
The Kd was 1.99 µM.

And the Kd [5, 28]?
Its Kd is 0.0832 µM.

What about the Kd [6, 28] of the same sequence?
The Kd was 4.93 µM.

How did the Kd [1, 28] turn out when IDYDCVSFCY was run?
Its Kd is 3 µM.

And the Kd [2, 28]?
The Kd was 10.5 µM.

What about the Kd [3, 28] of the same sequence?
The Kd was no less than 38.5 µM.

And the Kd [4, 28]?
Its Kd is 1.55 µM.

What about the Kd [5, 28] of the same sequence?
Its Kd is 0.759 µM.

What about the Kd [6, 28] of the same sequence?
The Kd was 5.8 µM.

Which Kd [25, 31] does the source give for ESLETLMLV here?
The Kd was 0.162 µM.

Which results are given for KLKNKHEAMI?
Kd ([24]; source organism: Homo sapiens): ≥ 50.3 µM; Kd ([25]; source organism: Homo sapiens): 10.3 µM

MAIGIVSIL was tested. Which Kd ([25]; source organism: Dengue virus 1 Brazil/97-11/1997) did it give?
Its Kd is 0.00239 µM.

Which results are given for DLENRCQSL?
Kd ([22]; source organism: Homo sapiens): 12.4 µM; Kd ([23]; source organism: Homo sapiens): ≥ 32.8 µM; Kd ([24]; source organism: Homo sapiens): ≥ 78.7 µM; Kd ([25]; source organism: Homo sapiens): ≥ 107 µM
